Data taken from patent US20090075898A1, “Complement C3A Derived Peptides and Uses Thereof” (Yeda Research and Development Co. Ltd. at the Weizmann …, priority 2005, published 2009).

Key:
rat FcεRI β chain = test: Surface plasmon resonance, immobilized extracellular loop peptides of rat FcεRI β chain; settings: SPR
human FcεRI β chain = test: Surface plasmon resonance, immobilized extracellular loop peptides of human FcεRI β chain; settings: SPR
[1] = test system: bone marrow derived mast cells (BMMC); test: Secretory response (β-hexosaminidase release) of bone marrow derived mast cells; assay type: cell-based, mouse
Description: Cells. Bone marrow derived mast cells (BMMC) were prepared from Balb/c mice as described by Nagao et al. (Science 212: 333-335, 1981). After 3 weeks, an approximately 95% pure mast cell population was obtained, showing high expression of FcεRI and stem cell factor receptor (c-kit), as measured by flow cytometry.
(§1) Secretory response of mast cells.
Similar experiments were carried out using bone-marrow derived mast cells (BMMC). […] The control peptide of the sequence DVSNYITR had no effect on either system.

[2] = test system: rat peritoneal mast cells (RPMC); test: Secretory response (β-hexosaminidase release) of rat peritoneal mast cells; assay type: cell-based; settings: non-sensitized cells, no antigen
Source text: Rat peritoneal mast cells (RPMC) were isolated as previously described (Kim et al. J. Immunol. 162:4960-4965, […]). Mast cell preparations were ca. 95% pure, as evaluated by flow cytometric monitoring of FcεRI surface expression. Compound 48/80, a specific activator of serosal type mast cells elicited about 50% release of the total β-hexosaminidase content of the isolated rat peritoneal mast cells.
as §1
While mucosal type mast cells are non-responsive to peptidergic stimuli, the serosal type ones have been known for a long time to be stimulated by cationic secretagogues. The anaphylatoxic peptides C3a and C5a initiate the cells' secretory response by binding to their respective receptors expressed by serosal type mast cells. To investigate the effect of the peptides on this mast cell-type, RPMC were used. As expected, these cells did respond to both C5a and C3a (Table 2). However, degranulation was inhibited when peptides C3a7 or C3a9 were added to the IgE-sensitized RPMC and stimulated, 5 min later with a suboptimal antigen dose (Table 2).

RBL-2H3 cells = settings: Erdei et al. 1995, 1999; cited from earlier work

B1: C5a: complement activation product C5a, anaphylatoxic peptide, isolated; used as control (protein)
chain: TLQKKIEEIAAKYKHSVVKKCCYDGACVNNDETCEQRAARISLGPRCIKAFTECCVVASQLRANISHKDMQLGR
Rat FcεRI β chain
  Reaction with any tested sequences (1st and 2nd loop) of rat FcεRI β-chain: did not react
Human FcεRI β chain
  Reaction with any tested sequences (1st and 2nd loop) of human FcεRI β-chain: did not react
[1]
  Inhibition of IgE-mediated secretory response of BMMC: had no effect
[2]
  Stimulation of secretory response of RPMC by the peptide itself: did respond
RBL-2H3 cells
  Inhibition of IgE-mediated degranulation of RBL-2H3 cells (literature): has no effect
